# Measured values taken from US20150344570A1 (published 2015).
# Numbering of substitutions follows the chain as printed.
# B1: J142-z73/L180-k (antibody, human IgG4 S228P, kappa)
# heavy: QVQLVQSGSELKKPGASVKVSCKASGYTFTDNNMDWVRQAPGQGLEWMGDINTRSGGSIYNEEFQDRVTMTIDKSTGTAYMELSSLRSEDTAVYYCARRRSYGYYHDEWGEGTLVTVSSASTKGPSVFPLAPCSRSTSESTAALGCLVKDYFPEPVTVSWNSGALTSGVHTFPAVLQSSGLYSLSSVVTVPSSSLGTKTYTCNVDHKPSNTKVDKRVESKYGPPCPPCPAPEFLGGPSVFLFPPKPKDTLMISRTPEVTCVVVDVSQEDPEVQFNWYVDGVEVHNAKTKPREEQFNSTYRVVSVLTVLHQDWLNGKEYKCKVSNKGLPSSIEKTISKAKGQPREPQVYTLPPSQEEMTKNQVSLTCLVKGFYPSDIAVEWESNGQPENNYKTTPPVLDSDGSFFLYSRLTVDKSRWQEGNVFSCSVMHEALHNRFTQESLSLSP
# light: DIQMTQSPSSLSASVGDRVTITCKASRNIERNLAWYQQKPGQAPELLIYSASRKESGVPDRFSGSRYGTDFTLTISSLQPEDLATYYCQQYYSPPLTFGGGTKVEIKRTVAAPSVFIFPPSDEQLKSGTASVVCLLNNFYPREAKVQWKVDNALQSGNSQESVTEQDSKDSTYSLSSTLTLSKADYEKHKVYACEVTHQGLSSPVTKSFNRGEC
# notes: also called homomeric antibody against FX
# B2: J142-z72/L180-k (antibody, human IgG4 S228P, kappa)
# heavy: B1 heavy with E438K
# light: B1 light
# notes: also called homomeric antibody J142-z72; homomeric antibody against FX
# B3: J300-z107/L210-k (antibody, human IgG4 S228P, kappa)
# heavy: B1 heavy with T69I, I72V, G77D, Y95H, R100K, H106L, K198Q, F295Y, R408K, F435Y
# light: B1 light with L83I, Y92S
# notes: also called homomeric antibody J300-z107
# B4: J300-z107/L210-k (antibody, human IgG4 S228P, kappa)
# heavy: B1 heavy with T69I, I72V, G77D, Y95H, R100K, H106L, K198Q, F295Y, R408K, F435Y
# light: B1 light with L83I, Y92S
# notes: Homomeric by-product in the culture medium of Q407-z106/J300-z107/L210-k; also called homomeric antibody against FX
# B5: J142-z73/L180-k (antibody, human IgG4 S228P, kappa)
# heavy: B1 heavy
# light: B1 light
# notes: also called homomeric antibody J142-z73
# B6: H240-Kn125/H240-Hl076/L73-k0 (antibody, human IgG1, kappa)
# heavy 1: QDQLVQSGAEVKKPGASVKVSCKASGFNIKDTYIQWVRQAPGQGLEWMGRIDPLRKQTKYREKFEGRVTITADTSTNTAYMELSSLRSEDTAVYYCVRSGREFDYWGQGTLVTVSSASTKGPSVFPLAPSSKSTSGGTAALGCLVKDYFPEPVTVSWNSGALTSGVHTFPAVLQSSGLYSLSSVVTVPSSSLGTQTYICNVNHKPSNTKVDKKVEPKSCDKTHTCPPCPAPEYQWGPMVFLFPPKPKDTLMISRTPEVTCVVVDVSDEEPEVKFNWYVDGVEVHNAKTKPREEQYNATYRVVSVLTVLHQDWLNGKEYKCKVSNKALPAPIEKTISKAKGQPREPQVCTLPPSRDELTKNQVSLWCLVKGFYPSDIAVEWESNGQPENNYKTTPPVLDSDGSFFLYSKLTVDKSRWQQGNVFSCSVMHEALHNHYTQKSLSLSP
# heavy 2: QDQLVQSGAEVKKPGASVKVSCKASGFNIKDTYIQWVRQAPGQGLEWMGRIDPLRKQTKYREKFEGRVTITADTSTNTAYMELSSLRSEDTAVYYCVRSGREFDYWGQGTLVTVSSASTKGPSVFPLAPSSKSTSGGTAALGCLVKDYFPEPVTVSWNSGALTSGVHTFPAVLQSSGLYSLSSVVTVPSSSLGTQTYICNVNHKPSNTKVDKKVEPKSCDKTHTCPPCPAPELLGGPSVFLFPPKPKDTLMISRTPEVTCVVVDVSHEEPEVKFNWYVDGVEVHNAKTKPREEQYNSTYRVVSVLTVLHQDWLNGKEYKCKVSNDALPMPIEETISKAKGQPREPQVYTLPPSRCELTKNQVSLSCAVKGFYPSDIAVEWESNGQPENNYKTTPPVLDSDGSFFLVSKLTVDKSRWQQGNVFSCSVMHEALHNHYTQKSLSLSP
# light: DIQMTQSPSSLSASVGDRVTITCRASQDIHKYIAWYQQKPGQAPRLLIQYTSTLQPGVPSRFSGSGSGTDYTFTISSLQPEDIATYYCLQYEQLRTFGGGTKVEIKRTVAAPSVFIFPPSDEQLKSGTASVVCLLNNFYPREAKVQWKVDNALQSGNSQESVTEQDSKDSTYSLSSTLTLSKADYEKHKVYACEVTHQGLSSPVTKSFNRGEC
# B7: H240-Kn125/H240-Hl076/L73-k0 (antibody, human IgG1, kappa)
# heavy 1: B6 heavy 1
# heavy 2: B6 heavy 2
# light: B6 light
# notes: Anti-epiregulin heterodimerized IgG1, knobs-into-holes
# Key:
# Protein A [1] = biological target: T1, Protein A (UniProt P38507 37-327); test: Protein A column chromatography, stepwise pH elution; eluted fractions analysed by cation exchange chromatography (peak area %)
# T1 construct: Commercial chromatography resin; also called rProtein A Sepharose Fast Flow (GE Healthcare)
# Protein A [2] = biological target: T2, Protein A (UniProt P38507 37-327); test: Protein A affinity chromatography, stepwise pH elution
# T2 construct: bought recombinant resin; also called rProtein A Sepharose Fast Flow
# Source text: Samples purified by batchwise elution were used as controls.
# Protein A [3] = biological target: T2, Protein A; test: Protein A affinity chromatography, elution at pH 3.6
# Protein A [4] = biological target: T1, Protein A; test: Protein A column chromatography, pH 3.6 elution; eluted fraction analysed by cation exchange chromatography (peak area %)
# Protocol: The quantity of CM to be loaded was adjusted in a way that the quantity of the loaded antibody is 20 mg/ml resine. Fractions eluted under each condition were collected and the components contained in each elution fraction were identified by cation exchange chromatography analysis. […] Samples purified by batchwise elution were used as controls.
# The values represent the area of elution peak expressed in percentage.
# Protein A [5] = biological target: T2, Protein A; test: Protein A affinity chromatography, elution at pH 3.6 and pH 2.7
# FcgRIa = biological target: T3, FcgRIa (human, UniProt P12314 16-292); test: SPR (Biacore), antibody captured on chip, FcgR extracellular domain as analyte
# T3 construct: extracellular domain; also called FcγRIa; FcγRI (CD64); not shown: His tag attached to the C terminus
# T3 sequence (P12314 16-292): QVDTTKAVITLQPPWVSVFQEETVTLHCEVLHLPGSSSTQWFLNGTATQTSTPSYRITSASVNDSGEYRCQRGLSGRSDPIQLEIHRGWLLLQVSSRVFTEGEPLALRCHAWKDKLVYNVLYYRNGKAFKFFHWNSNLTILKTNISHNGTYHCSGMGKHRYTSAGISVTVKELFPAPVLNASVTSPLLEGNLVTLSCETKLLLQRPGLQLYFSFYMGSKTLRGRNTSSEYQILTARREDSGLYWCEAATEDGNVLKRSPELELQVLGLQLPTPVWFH
# Protocol: (§1) Specifically, H240-Kn204 resulting from the introduction of L234Y/K290Y/Y296W into H240-Kn033, H240-Hl211 resulting from the introduction of S239D/A330M/K334V into H240-Hl033, H240-Kn205 resulting from the introduction of L234Y/Y296W/S298C into H240-Kn033, and H240-Hl212 resulting from the introduction of S239D/K334V into H240-Hl033 were produced according to the method of Reference Example 1. H240-Kn204/H240-Hl211/L73-k0 and H240-Kn205/H240-Hl212/L73-k0 were prepared according to the method of Reference Example 1, by combining H240-Kn204 as one of the H chains and L73-k0 as the L chains with H240-Hl211 as the other H chain, and by combining H240-Kn205 as one of the H chains and L73-k0 as the L chains with H240-Hl212 as the other H chain, and then expressing them. The binding of the prepared variants to FcgRIa, FcgRIIaR, FcgRIIaH, FcgRIIb, FcgRIIIaF, and FcgRIIIaV was measured according to the method of Reference Example 8.
# (§2) Analysis of interaction between objective antibody and the FcγR was carried out using Biacore T100 (GE Healthcare), Biacore T200, Biacore A100, and Biacore 4000. HBS-EP+ (GE Healthcare) was used as the running buffer, and the measurement temperature was set to 25° C. Chips produced by immobilizing the antigen peptide by the amine coupling method to a Series S sensor Chip CM5 (GE Healthcare), chips produced by allowing preliminarily biotinylated antigen peptides to interact with and immobilize onto a Series S Sensor Chip SA (certified) (GE Healthcare), chips produced by immobilizing Protein L (ACTIGEN, BioVision) to Series S Sencor Chip CM5 (GE Healthcare), or chips produced by immobilizing Protein A/G (Thermo Scientific) to Series S Sencor Chip CM5 (GE Healthcare) were used. Antibodies of interest were captured onto these chips, and allowed to interact to each FcγR diluted with running buffer. To regenerate and repeatedly use the chip, the antibodies captured onto the chip were washed off by reacting 10 mM glycine-HCl, pH 1.5.
# FcgRIIaR [6] = biological target: T4, FcgRIIaR (human, UniProt P12318 34-217); test: as above
# T4 construct: extracellular domain; also called FcγRIIa R; FcgRIIa type R; not shown: His tag attached to the C terminus
# T4 sequence (looked up): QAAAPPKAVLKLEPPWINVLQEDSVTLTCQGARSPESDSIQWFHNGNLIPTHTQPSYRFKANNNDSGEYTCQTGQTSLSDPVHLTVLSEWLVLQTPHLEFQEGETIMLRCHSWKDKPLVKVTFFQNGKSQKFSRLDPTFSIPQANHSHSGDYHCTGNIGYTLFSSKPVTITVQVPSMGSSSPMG
# Protocol: as §1, §2
# FcgRIIaH [7] = biological target: T5, FcgRIIaH (human, UniProt P12318 34-217); test: as above
# T5 construct: extracellular domain; also called FcγRIIa H; FcgRIIa type H; not shown: His tag attached to the C terminus
# T5 sequence (looked up): T4 sequence (looked up) with R134H
# Protocol: as §1, §2
# FcgRIIb [8] = biological target: T6, FcgRIIb (human, UniProt P31994 43-217); test: as above
# T6 construct: extracellular domain; also called FcγRIIb; 2b; not shown: His tag attached to the C terminus
# T6 sequence (looked up): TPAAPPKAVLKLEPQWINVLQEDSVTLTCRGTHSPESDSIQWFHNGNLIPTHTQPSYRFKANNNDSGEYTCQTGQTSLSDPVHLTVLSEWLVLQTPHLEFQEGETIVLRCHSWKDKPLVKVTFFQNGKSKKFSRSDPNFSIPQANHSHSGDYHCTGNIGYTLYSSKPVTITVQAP
# Protocol: as §1, §2
# FcgRIIIaF [9] = biological target: T7, FcgRIIIaF (human, UniProt P08637 17-208); test: as above
# T7 construct: extracellular domain; also called FcγRIIIa F; 3aF; not shown: His tag attached to the C terminus
# Protocol: as §1, §2
# T7 sequence (P08637 17-208): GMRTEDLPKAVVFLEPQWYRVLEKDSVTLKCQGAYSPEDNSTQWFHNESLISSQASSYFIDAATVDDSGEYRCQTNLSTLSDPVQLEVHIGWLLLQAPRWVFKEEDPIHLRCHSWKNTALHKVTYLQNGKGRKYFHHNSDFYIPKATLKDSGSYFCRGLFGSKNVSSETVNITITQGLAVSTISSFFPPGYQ
# FcgRIIIaV [10] = biological target: T8, FcgRIIIaV (human, UniProt P08637 17-208); test: as above
# T8 construct: extracellular domain; also called FcγRIIIa V; 3aV; not shown: His tag attached to the C terminus
# T8 sequence (P08637 17-208 F176V limits assumed): as the sequence (P08637 17-208) above, with F160V counted along it
# Protocol: as §1, §2
# FcgRIIaR [11] = biological target: T9, FcgRIIaR (human, UniProt P12318 34-217); test: SPR (Biacore); KD of H240-Kn033/H240-Hl033/L73-k0 divided by KD of this variant
# T9 construct: extracellular domain; also called FcγRIIa R; FcgRIIa type R; not shown: His tag attached to the C terminus
# T9 sequence (looked up): T4 sequence (looked up)
# FcgRIIaH [12] = biological target: T10, FcgRIIaH (human, UniProt P12318 34-217); test: as above
# T10 construct: extracellular domain; also called FcγRIIa H; FcgRIIa type H; not shown: His tag attached to the C terminus
# T10 sequence (looked up): T4 sequence (looked up) with R134H
# FcgRIIb [13] = biological target: T11, FcgRIIb (human, UniProt P31994 43-217); test: as above
# T11 construct: extracellular domain; also called FcγRIIb; 2b; not shown: His tag attached to the C terminus
# T11 sequence (looked up): T6 sequence (looked up)
# FcgRIIIaF [14] = biological target: T12, FcgRIIIaF (human, UniProt P08637 17-208); test: as above
# T12 construct: extracellular domain; also called FcγRIIIa F; 3aF; not shown: His tag attached to the C terminus
# T12 sequence (P08637 17-208): as the sequence (P08637 17-208) above
# FcgRIIIaV [15] = biological target: T8, FcgRIIIaV; test: as above
binder,measurement,setting,value
B1,binding result,Protein A [1],no binding
B2,binding result,Protein A [2],no binding
B3,binding result,Protein A [3],no binding
B4,binding result,Protein A [4],no binding
B5,binding result,Protein A [5],no binding
B6,Kd,FcgRIa,0.066 nM
same,Kd,FcgRIIaR [6],420 nM
same,Kd,FcgRIIaH [7],140 nM
same,Kd,FcgRIIb [8],3900 nM
same,Kd,FcgRIIIaF [9],1.3 nM
B7,Kd,FcgRIIIaV [10],0.26 nM
same,fold 2aR,FcgRIIaR [11],1.8 fold
same,fold 2aH,FcgRIIaH [12],3.7 fold
same,fold 2b,FcgRIIb [13],0.8 fold
same,fold 3aF,FcgRIIIaF [14],223 fold
same,fold 3aV,FcgRIIIaV [15],185 fold
